Reference: patent US20220332813A1 (UNIVERSITY OF MARYLAND BALTIMORE, published 2022)
Values belong to the binder of their own block, whether it stands above or below them.

Columns and labels:
[1] = target: T1, hyperphosphorylated 2N4R tau produced by Sf9 cells (human, UniProt P10636-8 1-441, hyperphosphorylated (produced in Sf9 insect cells, intermediate phosphorylation state); sites not stated); assay: SPR equilibrium (KD eq, Req fit)
T1 construct: His-tagged; also called SF9 tau; 2N4R SF9

[2] = target: T1, hyperphosphorylated 2N4R tau produced …; assay: SPR single cycle, VPS10P domain immobilised, 1:1 fit
[3] = target: T2, human recombinant tau (2N4R) (human, UniProt P10636-8 1-441); assay: as above
T2 construct: Radio-iodinated in the cell assays; also called monomeric tau; full-length tau (2N4R)
T2 sequence (P10636 other isoform, or with tags, fused parts or gaps limits assumed): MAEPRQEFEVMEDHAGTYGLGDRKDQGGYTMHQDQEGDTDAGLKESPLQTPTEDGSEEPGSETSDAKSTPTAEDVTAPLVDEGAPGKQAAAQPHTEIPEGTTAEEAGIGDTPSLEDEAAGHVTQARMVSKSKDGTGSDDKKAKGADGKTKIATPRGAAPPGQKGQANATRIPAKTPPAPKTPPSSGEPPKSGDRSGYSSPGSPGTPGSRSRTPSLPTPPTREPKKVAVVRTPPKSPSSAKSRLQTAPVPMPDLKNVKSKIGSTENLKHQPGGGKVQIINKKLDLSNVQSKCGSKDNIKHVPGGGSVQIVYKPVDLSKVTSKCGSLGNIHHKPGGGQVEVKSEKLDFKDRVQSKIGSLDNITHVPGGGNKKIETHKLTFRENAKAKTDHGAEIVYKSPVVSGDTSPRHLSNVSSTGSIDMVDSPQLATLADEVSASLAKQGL

[4] = target: T1, hyperphosphorylated 2N4R tau produced …; assay: SPR, from kinetic parameters of the 1:1 fit
[5] = target: T2, human recombinant tau (2N4R); assay: SPR, from kinetic parameters of the 1:1 fit
[6] = target: T2, human recombinant tau (2N4R); assay: SPR, SorLA fragment 82-181 immobilised, increasing tau

T1 sequence (P10636 other isoform, or with tags, fused parts or gaps limits assumed): as above

Kd [1]: 95 nM | koff [2]: 0.0061 s⁻¹ | kon [2]: 85000 M⁻¹ s⁻¹ | koff [3]: 0.41 s⁻¹ | kon [3]: 5e+07 M⁻¹ s⁻¹ | Kd [4]: 78 nM | Kd [5]: 15 nM
B1: recombinant human SORLA VPS10P domain (residues 82-753) (receptor)
chain: SAALQPEPIKVYGQVSLNDSHNQMVVHWAGEKSNVIVALARDSLALARPKSSDVYVSYDYGKSFKKISDKLNFGLGNRSEAVIAQFYHSPADNKRYIFADAYAQYLWITFDFCNTLQGFSIPFRAADLLLHSKASNLLLGFDRSHPNKQLWKSDDFGQTWIMIQEHVKSFSWGIDPYDKPNTIYIERHEPSGYSTVFRSTDFFQSRENQEVILEEVRDFQLRDKYMFATKVVHLLGSEQQSSVQLWVSFGRKPMRAAQFVTRHPINEYYIADASEDQVFVCVSHSNNRTNLYISEAEGLKFSLSLENVLYYSPGGAGSDTLVRYFANEPFADFHRVEGLQGVYIATLINGSMNEENMRSVITFDKGGTWEFLQAPAFTGYGEKINCELSQGCSLHLAQRLSQLLNLQLRRMPILSKESAPGLIIATGSVGKNLASKTNVYISSSAGARWREALPGPHYYTWGDHGGIITAIAQGMETNELKYSTNEGETWKTFIFSEKPVFVYGLLTEPGEKSTVFTIFGSNKENVHSWLILQVNATDALGVPCTENDYKLWSPSDERGNECLLGHKTVFKRRTPHATCFNGEDFDRPVVVSNCSCTREDYECDFGFKMSEDLSLEVCVPDPEFSGKSYSPPVPCPVGSTYRRTRGYRKISGDTCSGGDVEARLEGELVPCP
notes: also called SORL1 VPS10 domain; R&D Systems 9880-LA

Kd [6]: 40 nM
B2: commercially available fragment of SorLA comprising residues 82-181 (receptor)
chain: SAALQPEPIKVYGQVSLNDSHNQMVVHWAGEKSNVIVALARDSLALARPKSSDVYVSYDYGKSFKKISDKLNFGLGNRSEAVIAQFYHSPADNKRYIFAD
notes: The range may be a misprint for 82-753; also called SorLA fragment
